Measurements: patent US20220387487A1, “COMPOSITIONS AND METHODS FOR TREATMENT OF CANCER” (Aleta Biotherapeutics Inc., priority 2019, published 2022)

B1: W62D/F64V/F66M: CD19 variant (protein)
chain: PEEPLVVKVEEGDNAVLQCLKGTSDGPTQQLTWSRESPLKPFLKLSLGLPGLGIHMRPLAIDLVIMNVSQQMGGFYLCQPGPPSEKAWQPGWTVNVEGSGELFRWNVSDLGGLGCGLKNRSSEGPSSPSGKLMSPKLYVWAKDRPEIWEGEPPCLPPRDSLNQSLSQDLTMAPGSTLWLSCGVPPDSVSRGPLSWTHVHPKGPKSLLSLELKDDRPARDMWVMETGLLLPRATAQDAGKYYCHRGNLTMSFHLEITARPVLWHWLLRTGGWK
B2: W62H/F64F/F66R: CD19 variant (protein)
chain: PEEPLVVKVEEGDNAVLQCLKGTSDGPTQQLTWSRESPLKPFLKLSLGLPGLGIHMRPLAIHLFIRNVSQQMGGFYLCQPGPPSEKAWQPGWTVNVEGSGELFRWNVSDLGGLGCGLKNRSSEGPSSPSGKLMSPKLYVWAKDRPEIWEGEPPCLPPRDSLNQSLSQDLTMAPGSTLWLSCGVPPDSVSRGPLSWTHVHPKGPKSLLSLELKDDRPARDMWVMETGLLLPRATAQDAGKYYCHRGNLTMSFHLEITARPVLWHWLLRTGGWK
B3: E224E/G226E/L228V: CD19 variant (protein)
chain: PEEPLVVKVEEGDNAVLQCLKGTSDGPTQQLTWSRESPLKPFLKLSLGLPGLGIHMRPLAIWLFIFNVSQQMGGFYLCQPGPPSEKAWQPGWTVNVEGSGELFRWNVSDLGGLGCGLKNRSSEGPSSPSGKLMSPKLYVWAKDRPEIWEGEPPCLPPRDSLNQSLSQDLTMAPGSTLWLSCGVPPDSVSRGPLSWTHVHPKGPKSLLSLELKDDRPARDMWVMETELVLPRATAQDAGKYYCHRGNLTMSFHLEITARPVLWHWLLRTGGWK
B4: W62T/F64A/F66S: CD19 variant (protein)
chain: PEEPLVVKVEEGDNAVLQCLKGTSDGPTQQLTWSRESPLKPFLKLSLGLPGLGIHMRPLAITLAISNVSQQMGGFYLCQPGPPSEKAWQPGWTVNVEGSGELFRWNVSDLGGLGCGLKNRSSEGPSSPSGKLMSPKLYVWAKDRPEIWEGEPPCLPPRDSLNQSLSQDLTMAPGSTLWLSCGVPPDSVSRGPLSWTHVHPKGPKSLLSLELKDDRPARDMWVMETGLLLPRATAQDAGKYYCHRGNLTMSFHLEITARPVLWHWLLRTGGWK
B5: W62T/F64V/F66F: CD19 variant (protein)
chain: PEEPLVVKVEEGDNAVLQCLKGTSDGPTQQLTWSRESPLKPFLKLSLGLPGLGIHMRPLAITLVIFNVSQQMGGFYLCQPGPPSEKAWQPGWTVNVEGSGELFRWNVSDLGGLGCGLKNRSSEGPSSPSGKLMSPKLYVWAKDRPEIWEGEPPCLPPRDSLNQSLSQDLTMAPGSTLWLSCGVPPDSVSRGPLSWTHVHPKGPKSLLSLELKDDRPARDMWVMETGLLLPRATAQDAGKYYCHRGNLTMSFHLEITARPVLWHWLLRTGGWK
B6: W62T/F64V/F66R: CD19 variant (protein)
chain: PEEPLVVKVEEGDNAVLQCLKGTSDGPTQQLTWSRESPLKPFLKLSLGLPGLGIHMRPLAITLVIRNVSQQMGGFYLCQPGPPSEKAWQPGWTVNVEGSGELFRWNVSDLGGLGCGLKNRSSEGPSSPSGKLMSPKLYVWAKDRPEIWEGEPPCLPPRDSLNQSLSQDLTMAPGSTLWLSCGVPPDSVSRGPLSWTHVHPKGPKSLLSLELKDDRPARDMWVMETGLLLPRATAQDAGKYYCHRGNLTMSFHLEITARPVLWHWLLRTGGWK
B7: W62E/F64C/F66S: CD19 variant (protein)
chain: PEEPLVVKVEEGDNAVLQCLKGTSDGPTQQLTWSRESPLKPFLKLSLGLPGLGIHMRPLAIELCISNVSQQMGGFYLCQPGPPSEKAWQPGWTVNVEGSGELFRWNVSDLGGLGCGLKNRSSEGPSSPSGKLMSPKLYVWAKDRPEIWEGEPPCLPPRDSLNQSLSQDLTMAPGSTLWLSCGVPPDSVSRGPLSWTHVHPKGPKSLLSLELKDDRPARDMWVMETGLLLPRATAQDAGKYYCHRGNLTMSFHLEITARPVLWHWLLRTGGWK
B8: W62E/F64R/F66R: CD19 variant (protein)
chain: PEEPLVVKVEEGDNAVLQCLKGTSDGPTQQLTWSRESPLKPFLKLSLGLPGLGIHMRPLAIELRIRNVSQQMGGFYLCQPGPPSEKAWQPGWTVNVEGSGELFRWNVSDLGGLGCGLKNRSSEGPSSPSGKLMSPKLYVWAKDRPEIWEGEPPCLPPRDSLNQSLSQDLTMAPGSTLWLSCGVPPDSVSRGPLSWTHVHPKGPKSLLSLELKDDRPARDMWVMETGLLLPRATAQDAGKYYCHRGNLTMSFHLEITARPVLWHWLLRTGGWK
B9: W62R/F64A/F66F: CD19 variant (protein)
chain: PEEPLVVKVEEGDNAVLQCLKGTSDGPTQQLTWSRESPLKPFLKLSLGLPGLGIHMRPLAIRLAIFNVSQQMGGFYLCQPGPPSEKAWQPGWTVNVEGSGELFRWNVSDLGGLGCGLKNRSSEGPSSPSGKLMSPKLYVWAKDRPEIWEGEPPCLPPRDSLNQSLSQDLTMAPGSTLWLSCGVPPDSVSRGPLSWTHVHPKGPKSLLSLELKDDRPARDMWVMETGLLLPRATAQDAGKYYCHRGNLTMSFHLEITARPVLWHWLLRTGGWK
B10: E224G/G226V/L228V: CD19 variant (protein)
chain: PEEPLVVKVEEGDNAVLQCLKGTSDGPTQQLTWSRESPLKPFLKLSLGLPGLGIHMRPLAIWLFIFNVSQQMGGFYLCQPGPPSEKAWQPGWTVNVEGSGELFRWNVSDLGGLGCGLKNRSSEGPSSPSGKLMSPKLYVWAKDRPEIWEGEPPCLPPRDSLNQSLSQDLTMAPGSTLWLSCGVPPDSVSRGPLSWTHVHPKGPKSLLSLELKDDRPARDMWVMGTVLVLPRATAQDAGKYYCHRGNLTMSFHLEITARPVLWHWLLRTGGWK
B11: E224G/G226S/L228M: CD19 variant (protein)
chain: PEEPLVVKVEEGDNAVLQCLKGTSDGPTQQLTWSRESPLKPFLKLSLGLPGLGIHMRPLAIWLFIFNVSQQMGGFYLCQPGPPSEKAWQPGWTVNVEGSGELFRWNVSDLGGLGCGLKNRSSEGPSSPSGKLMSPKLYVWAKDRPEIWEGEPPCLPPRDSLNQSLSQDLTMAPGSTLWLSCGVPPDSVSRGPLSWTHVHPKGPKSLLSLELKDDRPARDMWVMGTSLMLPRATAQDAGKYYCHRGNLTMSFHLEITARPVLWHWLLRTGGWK
B12: W62S/F64V/F66A: CD19 variant (protein)
chain: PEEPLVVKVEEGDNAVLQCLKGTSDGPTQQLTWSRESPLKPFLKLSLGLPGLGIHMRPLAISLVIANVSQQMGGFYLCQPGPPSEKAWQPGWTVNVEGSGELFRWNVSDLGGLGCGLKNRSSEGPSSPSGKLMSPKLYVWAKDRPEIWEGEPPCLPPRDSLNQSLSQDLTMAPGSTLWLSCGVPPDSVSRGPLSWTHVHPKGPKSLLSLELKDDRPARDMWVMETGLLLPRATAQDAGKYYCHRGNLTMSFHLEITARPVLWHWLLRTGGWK
B13: W62W/F64V/F66A: CD19 variant (protein)
chain: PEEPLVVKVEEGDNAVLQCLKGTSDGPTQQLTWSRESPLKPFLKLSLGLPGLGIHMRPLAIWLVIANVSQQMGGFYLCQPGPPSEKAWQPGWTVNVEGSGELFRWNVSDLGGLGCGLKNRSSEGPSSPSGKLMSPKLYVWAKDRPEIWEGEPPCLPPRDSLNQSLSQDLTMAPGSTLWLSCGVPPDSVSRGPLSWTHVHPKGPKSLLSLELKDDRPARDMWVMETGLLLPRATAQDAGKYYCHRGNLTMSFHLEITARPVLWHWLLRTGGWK
B14: W62D/F64V/F66R: CD19 variant (protein)
chain: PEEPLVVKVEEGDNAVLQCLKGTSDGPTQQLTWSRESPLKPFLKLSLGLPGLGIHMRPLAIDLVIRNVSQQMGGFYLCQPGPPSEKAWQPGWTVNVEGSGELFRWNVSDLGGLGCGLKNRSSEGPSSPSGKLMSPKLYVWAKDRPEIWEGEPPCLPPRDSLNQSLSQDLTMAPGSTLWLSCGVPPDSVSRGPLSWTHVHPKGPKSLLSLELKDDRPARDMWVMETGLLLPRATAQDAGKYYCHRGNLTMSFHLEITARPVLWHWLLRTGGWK
B15: E224G/G226A/L228T: CD19 variant (protein)
chain: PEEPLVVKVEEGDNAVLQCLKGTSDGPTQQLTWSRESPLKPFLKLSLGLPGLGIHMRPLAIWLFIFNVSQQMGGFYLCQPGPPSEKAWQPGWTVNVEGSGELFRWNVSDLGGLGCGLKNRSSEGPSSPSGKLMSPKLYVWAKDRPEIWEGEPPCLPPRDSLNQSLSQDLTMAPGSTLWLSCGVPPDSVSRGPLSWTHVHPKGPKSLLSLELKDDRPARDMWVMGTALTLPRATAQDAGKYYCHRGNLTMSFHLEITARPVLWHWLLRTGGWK
B16: E224G/G226R/L228V: CD19 variant (protein)
chain: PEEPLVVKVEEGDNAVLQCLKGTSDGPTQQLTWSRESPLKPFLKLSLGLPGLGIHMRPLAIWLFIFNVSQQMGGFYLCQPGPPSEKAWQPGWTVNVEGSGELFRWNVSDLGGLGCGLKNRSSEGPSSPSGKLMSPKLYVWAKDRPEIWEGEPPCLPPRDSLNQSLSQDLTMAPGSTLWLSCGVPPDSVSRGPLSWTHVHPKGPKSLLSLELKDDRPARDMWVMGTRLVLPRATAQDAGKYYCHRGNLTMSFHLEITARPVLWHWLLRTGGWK
B17: E224D/G226V/L228V: CD19 variant (protein)
chain: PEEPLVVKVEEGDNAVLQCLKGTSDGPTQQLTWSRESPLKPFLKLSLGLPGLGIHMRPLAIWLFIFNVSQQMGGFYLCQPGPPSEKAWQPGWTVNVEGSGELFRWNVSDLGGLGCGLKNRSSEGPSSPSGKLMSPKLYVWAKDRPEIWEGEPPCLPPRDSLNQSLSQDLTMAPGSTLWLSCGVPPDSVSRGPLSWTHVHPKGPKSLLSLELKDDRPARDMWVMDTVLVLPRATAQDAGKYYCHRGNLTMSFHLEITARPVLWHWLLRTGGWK

System: FMC63
Sequence (as listed by the source): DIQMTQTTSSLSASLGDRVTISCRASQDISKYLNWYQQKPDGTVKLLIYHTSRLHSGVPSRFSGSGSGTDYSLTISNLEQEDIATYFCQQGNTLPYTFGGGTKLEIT
Sequence (as listed by the source): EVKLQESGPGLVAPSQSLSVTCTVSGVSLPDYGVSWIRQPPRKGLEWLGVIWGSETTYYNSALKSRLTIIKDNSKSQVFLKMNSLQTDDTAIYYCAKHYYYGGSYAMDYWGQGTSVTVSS
Test: CD19 variant binding to anti-CD19 antibody FMC63 (score)
Settings: Table 1B, CD19 triple mutants

| Molecule | FMC63 Binding Score |
| --- | --- |
| B1 | 16. ± 5.6 |
| B2 | 12.4 ± 2.3 |
| B3 | 11.6 ± 1.2 |
| B4 | 15.7 ± 5.6 |
| B5 | 13.6 ± 3.2 |
| B6 | 12.2 ± 2.1 |
| B7 | 12.6 ± 2.3 |
| B8 | 12.4 ± 2.1 |
| B9 | 15.9 ± 5.6 |
| B10 | 11.2 ± 1. |
| B11 | 13.8 ± 3.4 |
| B12 | 13.5 ± 3.2 |
| B13 | 13.7 ± 3.2 |
| B14 | 12.6 ± 2.3 |
| B15 | 12.7 ± 2.4 |
| B16 | 11. ± .9 |
| B17 | 13.8 ± 3.4 |
